# Laboratory results reported in patent publication US20220403025A1 (GAMMADELTA THERAPEUTICS, published 2022).
# Where a chain is given by its changes, count along the chain named.
# B1: 1252_P01_C08 (IgG1) (antibody, V domains shown)
# VH: EVQLLESGGGLVQPGRSLRLSCAASGFTVSSNYMSWVRQAPGKGLEWVSVIYSGGSTYYADSVKGRFTISRDNSKNTLYLQMNSLRAEDTAVYYCASPIELGAFDIWGQGTLVTVSS
# VL: SSYELTQPPSVSVAPGKTARITCGGNNIGSQSVHWYQQKPGQAPMLVIYYDSDRPSGIPERFSGSNSGNTATLTISRVEAGDEADYYCQVWDSSSDHVVFGGGTKLTVL
# B2: 1245_P02_G04 (IgG1, made in HEK) (antibody, V domains shown)
# VH: QVQLQQSGPGLVKPSQTLSLTCAISGDSVSSKSAAWNWIRQSPSRGLEWLGRTYYRSKWSTDYAASVKSRITINPDTSKNQLSLQLNSVTPEDTAVYYCARTWSGYVDVWGQGTLVTVSS
# VL: DIQMTQSPPALSASVGDRVTITCRASQDINDWLAWYQHKPGKAPKLLIYDASSLESGVPSRFSGSGSGTEFTLTISSLQPDDFATYYCQQSYSTPQVTFGQGTRLEIK
# B3: 1139_P01_E04 (IgG1) (antibody, V domains shown)
# VH: QVQLQQSGPGLVKPSQTLSLTCAISGDSVSSNSAAWNWIRQSPSRGLEWLGRTYYRSKWYNDYAVSVRSRITINPDTSKNQFSLQLNSVTPEDTAVYYCARSWNDAFDIWGQGTTVTVSS
# VL: DIVMTQSPSTLSASIGDRVTITCRAGQSISTWLAWYQQKPGKAPKLLIYDASSLESGVPLRFSGSGSGTDFTLTISSLQPEDFATYYCQQSYSTPLTFGGGTKVEIK
# B4: 1245_P01_G09 (IgG1) (antibody, V domains shown)
# VH: QVQLQQSGPGLVKPSQTLSLTCAISGDSVSSNSAAWNWIRQSPSRGLEWLGRTYYGSKWYNEYALSVKSRIIINPDTSKNQFSLQLNSVTPEDTAVYYCARDYYYSMDVWGQGTLVTVSS
# VL: B3 VL with D70E, T74A, E81D, L96V, G100Q
# B5: 1245_P01_G06 (IgG1) (antibody, V domains shown)
# VH: QVQLVESGGGLVKPGGSLRLSCAASGFTFSDYYMSWIRQAPGKGLEWVSYISSSGSTIYYADSVKGRFTISRDNAKNSLYLQMNSLRAEDTAVYYCARHSWNDAFDVWGQGTLVTVSS
# VL: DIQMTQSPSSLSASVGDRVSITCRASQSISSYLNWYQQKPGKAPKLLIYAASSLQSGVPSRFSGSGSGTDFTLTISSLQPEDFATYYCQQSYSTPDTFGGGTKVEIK
# B6: 1245_P01_E07 (IgG1) (antibody, V domains shown)
# VH: B5 VH with H99V, S100D, W101Y, N102A, V107I
# VL: DIQMTQSPSSLSASVGDRVTIACRAGQSIGTYLNWYQQKPGKAPKLLIYVASSLQSGVPSRFSGSGSGTEFTLTISSLQPEDFATYYCQQSYSTLLTFGRGTKVEIK
# Biological target: Vδ1 γδ T cell receptor on skin-derived γδ T cells (human)
# Assay: cell-based or functional assay
Binder,Killing assay (EC50 µg/ml - 2 or 3 donors),T cell degranulation (EC50 µg/ml - 3 donors)
B1,0.02 µg/mL,–
B2,0.1 µg/mL,0.002 µg/mL
B3,–,0.005 µg/mL
B4,–,0.001 µg/mL
B5,–,0.001 µg/mL
B6,0.06 µg/mL,–
